# Laboratory results: US20060293506A1 (Amgen, published 2006)
# Substitutions are numbered along the chain they refer to.
# B1: CURA2 MAb 1.51 (antibody, IgG2, V domains shown)
# VH: EVQLVQSGAEVKKPGESLKISCKGSGYSFTSYWIGWVRQMPGKGLEWMGIIYPGDSDAKYSPSFQGQVTISADKSISTAYLQWSSLKASDTAMYYCARHYDYVWRNYRYTGWFDPWGQGTLVTVSS
# VL: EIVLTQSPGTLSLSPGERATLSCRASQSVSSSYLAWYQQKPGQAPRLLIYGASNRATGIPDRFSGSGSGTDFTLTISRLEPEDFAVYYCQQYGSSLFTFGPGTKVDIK
# B2: CURA2 MAb 1.29 (antibody, IgG2, V domains shown)
# VH: EVQLVQSGAEVKKPGESLKISCKGSGYSFTSYWIGWVRQMPGKGLEWMGIIYPGDSDTRYSPSFQGQATISADKSISTAYLQWSSLKASDTAMYYCARHVDVGATIGGYYYYYHGMDVWGQGTTVTVSS
# VL: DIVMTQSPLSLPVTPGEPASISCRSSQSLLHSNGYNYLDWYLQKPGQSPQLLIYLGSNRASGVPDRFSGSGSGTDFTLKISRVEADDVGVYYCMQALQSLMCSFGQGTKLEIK
# B3: CURA2 MAb 6.4 (antibody, IgG2, V domains shown)
# VH: QVQLVQSGAEVKKPGASVKVSCKASGYTFTSYDINWVRQATGQGLEWMGWINPNSGNTDYAQKFQGRVTMTRDTSISTAYMELSSLRSEDTAIYYCVRGFGYSYNYDYYYGMDVWGQGTTVTVSS
# VL: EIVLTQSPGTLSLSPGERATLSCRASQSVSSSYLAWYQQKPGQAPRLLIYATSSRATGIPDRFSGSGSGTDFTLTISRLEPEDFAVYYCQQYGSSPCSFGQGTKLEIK
# B4: CURA2 MAb 1.45 (antibody, IgG2, V domains shown)
# VH: B3 VH with I51M, D59G, D73N, I93V, V97A, F100S, N105G
# VL: DIQMTQSPSSLSASVGDRVTINCRASQGISNDLAWYQQKPGKVPKLLIYAASTLQLGVPSRFSGSGSGTDFTLTISSLQPEDVATYYCQKYNSAPFTFGPGTKVDIK
# B5: CURA2 MAb 1.46 (antibody, IgG2, V domains shown)
# VH: QVQLVQSGAEVKKPGASVKVSCKASGYSFTSYDINWVRQATGQGLEWMGWMNPNNGNTGYAQKFQGRVTMTRNTSISTAYMELSSLRSEDTAVYYCARDIVVVVTATDYYYGMDVWGQGTTVTVSS
# VL: DIQMTQSPSSLSASVGDRVTITCRASQGIRNDLGWYQQKPGKAPKRLIFAASSLPSGVPSRFSGSGSGTEFTLTISSLQPEDFATYYCLQHSGYPPTFGQGTKVEIK
# B6: CURA2 MAb 1.19 (antibody, IgG2, V domains shown)
# VH: QVQLVQSGAEVKKPGASVKVSCKASGYTFTSYDINWVRQATGQGLEWMGWMNPNSGNTGYAQKFQGRVTMTRNTSISTAYMELSSLRSEDTAVYYCARDVMITFGGVIVHYGMDVWGQGTTVTVSS
# VL: B5 VL with F49Y, P55Q, E70D, S92N, G93S, Y94D, P96C, T97S, V104L, K107R
# B7: CURA2 MAb 1.18 (antibody, IgG2, V domains shown)
# VH: QVQLVQSGAEVKKPGASVKVSCKASGYTFTSYDINWVRQATGQGLEWMGWMNPNSGNTGYAQKFQGRVTMTRNTSISTAYMELSSLRSEDTAVYYCAREGIAVAGTYYYYYGMDVWGQGTTVTVSS
# VL: B5 VL with F49Y, P55Q, Y87F, S92N, G93S, P96F, Q100P, E105D
# Biological target: p35 form of the 30664188.0.99 gene product (active fragment of PDGFD) (human, UniProt Q9GZP0 250-370)
# Experiment: cell-based or functional assay
row,Binder,"IC50 (ng/mL), BrdU incorporation assay on NIH 3T3 cells"
1,B1,1000 ng/mL
2,B2,150 ng/mL
3,B3,75 ng/mL
4,B4,750 ng/mL
5,B5,500 ng/mL
6,B6,75 ng/mL
7,B7,> 1000 ng/mL
